US8822407B2, “Preparation of conjugates comprising adenine derivatives and allergenic proteins and their use for specific immunotherapy of allengenic diseases” (Universita' Degli Studi di Firenze, priority 2010, dated 2014)

Legend:
purified CD14+ cells = experiment: Cytokine production by purified CD14+ cells (ELISA of supernatants, 36 hrs); format: cell-based, human; conditions: for IL-6 production / IL-10 production / IL-12p40 production / TNF-alfa production: Table E
Method: Circulating mononuclear cells (MNC) are isolated by density gradient (Ficoll-Hypaque) using buffy coats from 14 normal donors (Servizio Immunotrasfusionale e terapie cellulari, Azienda Ospedaliera Universitaria A. Meyer, Firenze). 200×10^6 MNC are separated by the use of a commercial kit (CD14 isolation kit, Miltenyi) by the addition of 400 μl anti-CD14 monoclonal antibody bound to iron beads followed by isolation on magnetic columns (LS column). 50×10^6 monocytes are recovered by positive selection and are extensively washed with calcium and magnesium-free sterile PBS and then seeded in complete medium plus 10% foetal calf serum in 24 flat bottomed plates at the concentration of 1×10^6/ml. […] The plates are incubated for 36 hrs at 37° C. in 5% CO2 humidified atmosphere and the supernatants are collected after centrifugation at 1200 rpm, aliquoted and then stored at −20° C. up to the assay. […]
(§1) For the determination of cytokines and chemokines of the innate immunity, commercial ELISAs have been used: IL-12p40 (Cytoscreen, Biosource Int, Camarillo, Calif.), IFN-alfa (Cytoscreen), TNF-alfa (Cytoscreen), IL-10 (Pharmingen), IL-6 and CXCL10 (R&D System). 100 μl/well of single supernatants are incubated in flat bottomed plates as specified by the productors and the amounts of the single cytokines are expressed as pg/ml on the basis of a reference curve by using recombinant cytokines.

purified BDCA4+ cells = experiment: Cytokine production by purified BDCA4+ cells (plasmacytoid dendritic cells), ELISA; format: cell-based, human; conditions: for IFN-alfa production / IL-6 production / IL-10 production / TNF-alfa production: Table F
Method: The preparation of purified BDCA4+ cells has been obtained in a similar way starting from MNC of buffy coats of the same 14 healthy donors. […] By positive selection 5×10^6 plasmacytoid dendritic cells (PDCs) are recovered, extensively washed with calcium and magnesium-free sterile PBS and seeded in complete medium plus 10% foetal calf serum in 24-flat bottomed plates at the concentration 1×10^6/ml. […] The plates are incubated for 36 hrs at 37° C. in 5% CO2 humidified atmosphere and the supernatants are collected after centrifugation at 1200 rpm, aliquoted and then stored at −20° C. up to the assay. […]
as §1

human TLR7 = molecular target: T1, human TLR7 (Homo sapiens, UniProt Q9NYK1); experiment: TLR7 activation, NF-kB luciferase reporter in transfected HEK293 cells; format: cell-based; conditions: human TLR7-encoding plasmid
T1 construct: expressed in transfected cells; host or cells: HEK293 (transient Nucleofection, Amaxa)
T1 sequence (Q9NYK1 27-1049): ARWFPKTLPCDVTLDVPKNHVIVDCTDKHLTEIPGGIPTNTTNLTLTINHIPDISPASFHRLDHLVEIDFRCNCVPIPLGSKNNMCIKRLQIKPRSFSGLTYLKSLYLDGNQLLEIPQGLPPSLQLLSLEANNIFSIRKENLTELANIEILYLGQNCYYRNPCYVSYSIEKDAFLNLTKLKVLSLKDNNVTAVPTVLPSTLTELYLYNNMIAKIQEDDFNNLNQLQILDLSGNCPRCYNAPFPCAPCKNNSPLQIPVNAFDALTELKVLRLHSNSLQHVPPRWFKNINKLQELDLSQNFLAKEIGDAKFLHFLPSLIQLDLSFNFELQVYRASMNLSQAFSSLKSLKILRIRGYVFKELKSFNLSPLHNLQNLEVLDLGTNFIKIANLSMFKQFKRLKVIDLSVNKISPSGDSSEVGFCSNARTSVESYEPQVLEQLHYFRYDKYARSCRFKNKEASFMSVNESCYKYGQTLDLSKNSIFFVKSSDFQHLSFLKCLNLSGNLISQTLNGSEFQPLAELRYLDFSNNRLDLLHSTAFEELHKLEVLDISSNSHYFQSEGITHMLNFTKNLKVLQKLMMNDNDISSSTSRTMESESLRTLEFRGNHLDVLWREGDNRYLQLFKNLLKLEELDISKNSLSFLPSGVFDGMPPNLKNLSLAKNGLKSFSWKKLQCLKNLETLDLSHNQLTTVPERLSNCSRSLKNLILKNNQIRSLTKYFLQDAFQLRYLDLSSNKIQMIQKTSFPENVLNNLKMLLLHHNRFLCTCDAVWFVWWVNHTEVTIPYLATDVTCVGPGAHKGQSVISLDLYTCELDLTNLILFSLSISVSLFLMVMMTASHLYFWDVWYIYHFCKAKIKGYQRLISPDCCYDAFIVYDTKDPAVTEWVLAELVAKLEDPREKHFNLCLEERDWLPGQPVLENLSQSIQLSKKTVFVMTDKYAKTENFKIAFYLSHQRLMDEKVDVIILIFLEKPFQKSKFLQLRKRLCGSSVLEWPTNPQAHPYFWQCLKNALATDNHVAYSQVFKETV
Method: HEK293 cells are detached by trypsin from the plastic surface of the culture bottle, extensively washed with calcium and magnesium-free PBS, counted and adjusted at the concentration 1×10^6 cells/tube in polypropylene V-bottomed tubes. After the final wash, the cells are pelleted and 100 μl transfection buffer (Amaxa) is added together with […], TLR7, TLR8 or TLR9-encoding and ELAM-1 promoter NF-kB luciferase reporter plasmids. The mixture thus obtained is transferred in special cuvettes and transient transfection is obtained in a special apparatus which is able to directly introduce genetic material into the nucleus (Nucleofection®, Amaxa GmbH). The cells are then recovered and cultured at 1×10^5/ml in 48-flat bottomed plates in E-MEM medium plus 5% foetal calf serum for 18 hrs. […] Finally the luciferase activity is measured in the cellular lysates by a commercial kit (Promega).

B1: nDer p2: purified natural allergen Der p2, major allergen from the house dust mite Dermatophagoides pteronyssinus (protein, UniProt P49278 18-146, looked up)
Mite group 2 allergen Der p 2: DQVDVKDCANHEIKKVLVPGCHGSEPCIIHRGKPFQLEAVFEANQNTKTAKIEIKASIDGLEVDVPGIDPNACHYMKCPLVKGQQYDIKYTWNVPKIAPKSENVVVTVKVMGDDGVLACAIATHAKIRD
modifications: natural purified
notes: purified natural allergen Der p2, major allergen from the house dust mite Dermatophagoides pteronyssinus
Purified CD14+ cells; Table B, dose 10 μg/ml
  IL-6 production (mean ± SE): 0 ± 0 ng/mL
  IL-10 production (mean ± SE): 0.4 ± 0.4 ng/mL
  IL-12p40 production (mean ± SE): 0 ± 0 ng/mL
  TNF-alfa production (mean ± SE): 0.05 ± 0.06 ng/mL
Purified CD14+ cells; Donor #1, dose 10 μg/ml
  IL-6 production: 0 pg/mL
  IL-10 production: 0 pg/mL
  IL-12p40 production: 0 pg/mL
  TNF-alfa production: 218 pg/mL
Purified CD14+ cells; Donor #2, dose 10 μg/ml
  IL-6 production: 0 pg/mL
  IL-10 production: 0 pg/mL
  IL-12p40 production: 0 pg/mL
  TNF-alfa production: 0 pg/mL
Purified CD14+ cells; text to Tables A and B
  cytokine production from purified CD14+ cells (in words): essentially unable to induce the production of valuable cytokines
Purified BDCA4+ cells; Table D, dose 10 μg/ml
  IFN-alfa production (mean ± SE): 0.07 ± 0.06 ng/mL
  IL-6 production (mean ± SE): 0 ± 0 ng/mL
  IL-10 production (mean ± SE): 0 ± 0 ng/mL
  TNF-alfa production (mean ± SE): 0.03 ± 0.02 ng/mL
Purified BDCA4+ cells; Donor #1, dose 10 μg/ml
  IFN-alfa production: 0 pg/mL
  IL-6 production: 0 pg/mL
  IL-10 production: 0 pg/mL
  TNF-alfa production: 0 pg/mL
Purified BDCA4+ cells; Donor #2, dose 10 μg/ml
  IFN-alfa production: 0 pg/mL
  IL-6 production: 0 pg/mL
  IL-10 production: 0 pg/mL
  TNF-alfa production: 0 pg/mL
Human TLR7
  TLR7 activation (NF-κB luciferase) in transfected HEK293 cells: lack any activity
